From patent US20120315284

Tests used:
[1] = target: recombination GST-JNK1, P45983
[2] = target: T1, GST-c-Jun, P05412
T1 chain: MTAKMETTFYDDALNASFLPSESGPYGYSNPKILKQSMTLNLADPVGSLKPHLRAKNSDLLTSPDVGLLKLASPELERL

B1: MKK7 in cell lysate (immunoprecipitated with MKK7 antibody; the cells' own MKK7) (protein)
chain: AASSLEQKLSRLEAKLKQENREARRRIDLNLDISPQRPRPTLQLPLANDGGSRSPSSESSPQHPTPPARPRHMLGLPSTLFTPRSMESIEIDQKLQEIMKQTGYLTIGGQRYQAEINDLENLGEMGSGTCGQVWKMRFRKTGHVIAVKQMRRSGNKEENKRILMDLDVVLKSHDCPYIVQCFGTFITNTDVFIAMELMGTCAEKLKKRMQGPIPERILGKMTVAIVKALYYLKEKHGVIHRDVKPSNILLDERGQIKLCDFGISGRLVDSKAKTRSAGCAAYMAPERIDPPDPTKPDYDIRADVWSLGISLVELATGQFPYKNCKTDFEVLTKVLQEEPPLLPGHMGFSGDFQSFVKDCLTKDHRKRPKYNKLLEHSFIKRYETLEVDVASWFKDVMAKTESPRTSGVLSQPHLPFFR
For B1, the “in vitro immune-co-kinase analysis (32P phosphorylation by immunoprecipitated MKK7)” value [1] was “MKK7 was activated by depletion of TIP41 and phosphorylated GST-JNK1, a substrate of MKK7”.

B2: recombination GST-JNK1 (protein)
chain: MSRSKRDNNFYSVEIGDSTFTVLKRYQNLKPIGSGAQGIVCAAYDAILERNVAIKKLSRPFQNQTHAKRAYRELVLMKCVNHKNIIGLLNVFTPQKSLEEFQDVYIVMELMDANLCQVIQMELDHERMSYLLYQMLCGIKHLHSAGIIHRDLKPSNIVVKSDCTLKILDFGLARTAGTSFMMTPYVVTRYYRAPEVILGMGYKENVDLWSVGCIMGEMVCHKILFPGRDYIDQWNKVIEQLGTPCPEFMKKLQPTVRTYVENRPKYAGYSFEKLFPDVLFPADSEHNKLKASQARDLLSKMLVIDASKRISVDEALQHPYINVWYDPSEAEAPPPKIPDKQLDEREHTIEEWKELIYKEVMDLEERTKNGVIRGQPSPLAQVQQ
B2 was tested, and the “in vitro immune-co-kinase analysis (32P phosphorylation)” value [2] was “the activated JNK1 phosphorylated GST-c-jun protein, a substrate of JNK pathway”.
